Patent publication US20230026666A1 (CATHOLIC UNIVERSITY OF AMERICA, published 2023)

Key:
CD4 receptor on cells = biological target: T1, CD4 receptor on cells (human, UniProt P01730 26-458); assay: cell binding assay, protein coated, A3.01, A2.01 and Tzmbl cells added, CellTiterGlo detection
T1 construct: whole, on cells; also called CD4 receptor on T cells; CD4+ T cells (A3.01, A3R5, J-Lat 10.6, human PBMC)

[1] = biological target: T2, soluble human CD4 receptor with full-length extracellular domain (amino acids 1-370) (human, UniProt P01730 26-396); assay: ELISA, 0.1 ug protein coated per well, soluble CD4 added, detected with anti-CD4 antibody Sim.2
T2 construct: extracellular domain; also called soluble CD4; recombinant soluble CD4 (NIH AIDS Reagent program, 4615)

B1: Hoc (highly antigenic outer capsid protein), N-terminal hexa-histidine tag (other)
chain: HHHHHHMTFTVDITPKTPTGVIDETKQFTATPSGQTGGGTITYAWSVDNVPQDGAEATFSYVLKGPAGQKTIKVVATNTLSEGGPETAEATTTITVKNKTQTTTLAVTPASPAAGVIGTPVQFTAALASQPDGASATYQWYVDDSQVGGETNSTFSYTPTTSGVKRIKCVAQVTATDYDALSVTSNEVSLTVNKKTMNPQVTLTPPSINVQQDASATFTANVTGAPEEAQITYSWKKDSSPVEGSTNVYTVDTSSVGSQTIEVTATVTAADYNPVTVTKTGNVTVTAKVAPEPEGELPYVHPLPHRSSAYIWCGWWVMDEIQKMTEEGKDWKTDDPDSKYYLHRYTLQKMMKDYPEVDVQESRNGYIIHKTALETGIIYTYP
notes: Negative control
- binding result (CD4 receptor on cells): no binding (tested: 15 pmoles per well)
- binding result [1]: no binding
